Test results reported in US20210206838A1.

Assays:
Assay in all cases: cell-based or functional assay
[1] = target: HIV pseudovirus Ce1176_A3 (envelope glycoprotein) (HIV)
[2] = target: HIV pseudovirus BB1012-11.TC21 (envelope glycoprotein) (human immunodeficiency virus (HIV))
[3] = target: HIV pseudovirus CNE52 (envelope glycoprotein) (HIV)
[4] = target: envelope glycoprotein of HIV pseudovirus X1193_c1 (human immunodeficiency virus (HIV))
[5] = target: HIV pseudovirus SC05.8C11.2344 (envelope glycoprotein) (HIV)
[6] = target: HIV pseudovirus 0260.v5.c36 (envelope glycoprotein) (human immunodeficiency virus (HIV))
[7] = target: envelope glycoprotein of HIV pseudovirus Ce1176_A3 (human immunodeficiency virus (HIV))
[8] = target: HIV pseudovirus RHPA4259.7 (envelope glycoprotein) (human immunodeficiency virus (HIV))
[9] = target: HIV pseudovirus Du172.17 (envelope glycoprotein) (HIV)
[10] = target: HIV pseudovirus RHPA4259.7 (envelope glycoprotein) (HIV)
[11] = target: envelope glycoprotein of HIV pseudovirus 263-8 (human immunodeficiency virus (HIV))
[12] = target: HIV pseudovirus SC422661.8 (envelope glycoprotein) (human immunodeficiency virus (HIV))
[13] = target: envelope glycoprotein of HIV pseudovirus 6952.v1.c20 (human immunodeficiency virus (HIV))
[14] = target: envelope glycoprotein of HIV pseudovirus SC05.8C11.2344 (human immunodeficiency virus (HIV))
[15] = target: HIV pseudovirus 0260.v5.c36 (envelope glycoprotein) (HIV)
[16] = target: envelope glycoprotein of HIV pseudovirus AC10.0.29 (human immunodeficiency virus (HIV))
[17] = target: HIV pseudovirus CNE52 (envelope glycoprotein) (human immunodeficiency virus (HIV))
[18] = target: HIV pseudovirus Du172.17 (envelope glycoprotein) (human immunodeficiency virus (HIV))

Control (antibody)
neutralization IC50 [1]: 0.02 µg/mL
neutralization IC80 [1]: 0.076 µg/mL
neutralization IC50 [2]: 0.005 µg/mL
neutralization IC80 [2]: 0.021 µg/mL
neutralization IC50 [3]: 2.92 µg/mL
neutralization IC80 [3]: 17.8 µg/mL
IC50 [4]: 0.019 µg/mL
IC80 [4]: 0.065 µg/mL
neutralization IC50 [5]: 0.019 µg/mL
neutralization IC80 [5]: 0.071 µg/mL
neutralization IC50 [6]: 0.027 µg/mL
neutralization IC80 [6]: 0.105 µg/mL
IC50 [7]: 0.018 µg/mL
IC80 [7]: 0.049 µg/mL
neutralization IC50 [8]: 0.011 µg/mL
neutralization IC80 [8]: 0.033 µg/mL
neutralization IC50 [9]: 0.051 µg/mL
neutralization IC80 [9]: 0.672 µg/mL
neutralization IC50 [10]: 0.018 µg/mL
neutralization IC80 [10]: 0.047 µg/mL
IC50 [11]: 1.12 µg/mL
IC80 [11]: 9.37 µg/mL
neutralization IC50 [12]: 0.028 µg/mL
neutralization IC80 [12]: 0.126 µg/mL
IC50 [13]: 0.053 µg/mL
IC80 [13]: 0.373 µg/mL
IC50 [14]: 0.018 µg/mL
IC80 [14]: 0.084 µg/mL
neutralization IC50 [15]: 0.051 µg/mL
neutralization IC80 [15]: 0.143 µg/mL
IC50 [16]: 0.033 µg/mL
IC80 [16]: 0.117 µg/mL
neutralization IC50 [17]: 0.904 µg/mL
neutralization IC80 [17]: 16.8 µg/mL
neutralization IC50 [18]: 0.013 µg/mL
neutralization IC80 [18]: 0.198 µg/mL
